The source of these data is the nanobody polyreactivity screen of Harvey et al. (2022).

The nature of the series: yeast display, Sf9 membrane polyspecificity reagent, FACS + sequencing; frameworks hold sequencing errors. A digest of the protocol: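 After 36–48 hours of galactose induction, yeast (Saccharomyces cerevisiae BJ5465) displaying a synthetic nanobody library were stained at 4 °C for 1 hour with 10% biotinylated, detergent-solubilized Sf9 membrane reagent. Streptavidin microbeads enriched the stained cells before FACS sorting into low and high (top ~1%) gates on anti-HA and streptavidin fluorescence. Each clone's polyreactivity label reflects its gate of origin.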
With “QVQLVESGGGLVQAGGSLRLSCAASGITSGNNAMGWYRQAPGKERELVAAISWTGGSTYYADSVKGRFTISRDNAKNTVYLEMNSLKPEDTAVYYCAAGGWDPFTEQHYEYWGQGTQVTVSS”, the “polyreactivity (PSR sort gate)” value is “low polyreactivity”.

“QVQLVESGGGLVQAGGSLRLSCAASGITSGTYAMGRYRQAPGKERELVAGISRSGTRTYYADSVKGRFTISRDNAKNTVYLQMNSLKPEDTEVYYCNTYVGRRPGYGYWGQGTQVTVSS”: the “polyreactivity (PSR sort gate)” value is reported as “high polyreactivity”. With “QVQLVESGGGLVQAGGSLRLSCAASGITSHPYDMGWYRQAPGKERELVAVITSGGSTSYADSVKGRFTISRDNAKNTVYLQMNSLKPEDTAVYYCNADSWYAWYSYGYDYWGQGTQVTVSS”, the “polyreactivity (PSR sort gate)” value is on record as “low polyreactivity”. On to “QVQLVESGGGLVQAGGSLRLSCAASGITSSLNAMGWYRQAPGKERELVAAISWRGGSTYYADSVKGRFTISRDNAKNTVYLQMNSLKPEDTAVYYCAARSSYRKMDYWGQGTQVTVSS”, for which the “polyreactivity (PSR sort gate)” value is recorded as “high polyreactivity”. In the case of “QVQLVESGGGLVQAGGSLRLSCAASGITSSTYAMGWYRQAPGKERELVAAISLSGSSTNYADSVKGRFTISRDNAKNTVYLQMNSLKPEDTAVYYCAATNYRTYPYGYWGQGTQVTVSS”, the “polyreactivity (PSR sort gate)” value is reported as “high polyreactivity”.

For “QVQLVESGGGLVQAGGSLRLSCAASGITSYYYTMGWYRQAPGKERELVAAITSGGSTYYADSVKGRFTISRDNAKNSVYLQMNSLKPEDTAVYYCTADNPRYRGSKYGPYDDYNYWGQGTQVTVSS”, the “polyreactivity (PSR sort gate)” value is “low polyreactivity”.

Regarding “QVQLVESGGGLVQAGGSLRLSCAASGITVLKYVMGWYRQAPGKEREFVAAITARGGTTYYADSVKGRFTISRDNAKNTVYLQMNSLKQEDTAVYYCAARSYYSGLAYYYWGQGTQVTVSS”, the “polyreactivity (PSR sort gate)” value is “high polyreactivity”.

On to “QVQLVESGGGLVQAGGSLRLSCAASGITYGIYSMGWYRQAPGKERELVAAIDGSDGSTYYADSVKGRFTISRDNAKNTVYLQMNSLKPEDTAVYYCNADTGGYYVTGSYLYNEYDYWGQGTQVTVSS”, for which the “polyreactivity (PSR sort gate)” value is listed as “low polyreactivity”. For “QVQLVESGGGLVQAGGSLRLSCAASGITYTSYAMGWYRQAPGKERELVAAISSSGGSTYYADSVKGRFTISRDNAKNTVYLQMNSLKPEDTAVYYCIARPRSRSPRVEYDYWGQGTQVTVSS”, the “polyreactivity (PSR sort gate)” value was “high polyreactivity”.

Take “QVQLVESGGGLVQAGGSLRLSCAASGITYVSNAMGWYRQAPGKERELFAANTRRGTSTYYADSVKGRFTLSRDNAKNTVYLQMNSLKPVDTAVYYCNKVWKYSSSGFGKEVYGYDYWGQGTQVTVSS”: the “polyreactivity (PSR sort gate)” value was “high polyreactivity”. As to “QVQLVESGGGLVQAGGSLRLSCAASGIYAMGWYRQAPGKERELVAAIRWSGGSTYYADSVKGRFTISRDNAKNTVYLQMNSLKPEDTAVYYCAKRLRPGGYWYDYWGQGTQVTVSS”, the “polyreactivity (PSR sort gate)” value is “high polyreactivity”. “QVQLVESGGGLVQAGGSLRLSCAASGIYYNAMGWYRHAPGKERELVAAITTGDRTNYADSVKGRFTISRDNAKNTVYLQMNSLKPEDTAVYYCNAVVERLSSTARDFAYDYWGQGTQVTVSS”: the “polyreactivity (PSR sort gate)” value is listed as “low polyreactivity”. The same measure for “QVQLVESGGGLVQAGGSLRLSCAASGLAFVFNAMGWYRQAPGKERELVAAISSGDDTNYADSVKGRFTISRDNAKNTVYLQMNSLKPEDTAVYNCAKTSDPIKRPYYYWGQGTQVTVSS”: “low polyreactivity”; for “QVQLVESGGGLVQAGGSLRLSCAASGLFFFYYAMGWYRQAPGKERELDAAIRTNYADSVKGRFTISRDNAKNTVYLQMNSLKPEDTAVYYCAAESSQTPTSAFDYWGQGTQVTVSS”: “low polyreactivity”. With “QVQLVESGGGLVQAGGSLRLSCAASGLIFAHYAMGWYRQAPGTERELVAGITSGGSTNYADSVKGRFTISRDNAKNTVYLQMNSLKPEDTAVYYCNADRAGFLGFYLYDYWGQGTQVTVSS”, the “polyreactivity (PSR sort gate)” value was “low polyreactivity”. “QVQLVESGGGLVQAGGSLRLSCAASGLIFARNAMGWYRQAPGKERELVAAISRSGSTNYADSVKGRFTISRDNAKNTVYLQMNSLIPEDTAVYYCAAGPWGTGHYVQGPVYYYRYDYWGQGTQVTVSS”: the “polyreactivity (PSR sort gate)” value is on record as “low polyreactivity”.

Regarding “QVQLVESGGGLVQAGGSLRLSCAASGLIFARNAMGWYRQAPGKERELVAAISSSGNTYADSVKGRFTISRDNAKNTVYLQMNSLKPEDTAVYYCNKYGVVLPGFDYWGQGTQVTVSS”, the “polyreactivity (PSR sort gate)” value was “high polyreactivity”.

For “QVQLVESGGGLVQAGGSLRLSCAASGLIFDDYDMGWYRQAPGKERELVAAISLSGGSTFYADSVKGRFTISRDNAKNTVYLLMNSLKPEDTAVYYCAAQARRAYVQTRKYYWGQGTQVTVSS”, the “polyreactivity (PSR sort gate)” value is reported as “high polyreactivity”. Then “QVQLVESGGGLVQAGGSLRLSCAASGLIFDINAMGWYRQAPGKERDLVAAISFSDGITYYADSVKGRFTISRDNAKNTVYLHMNSLKPEDTAVYYCAVDYRIYRSGPMDYWGQGTQVTVSS”, with “high polyreactivity”. “QVQLVESGGGLVQAGGSLRLSCAASGLIFDYYAMGWYRQAPGKERELVAAITSSSGITYYADSVKGRFTISRDNAKNTVYLQMNSLKPEDTAVYYCAAYTTYKLYEYDYWGQGTQVTVSS”: the “polyreactivity (PSR sort gate)” value was “low polyreactivity”. Take “QVQLVESGGGLVQAGGSLRLSCAASGLIFEEYAMGWYRQAPGKERELVAGIDSSGSTNYADSVKGRFTISRDNAKNTVYLQMNSLKPEDTAVYYCTARGYYPRWYYVFRGNYWGQGTQVTVSS”: the “polyreactivity (PSR sort gate)” value was “low polyreactivity”. For “QVQLVESGGGLVQAGGSLRLSCAASGLIFFYYAMGWYRQAPGKERELVATINWNGGSTYYADSVKGRFTISRDNAKNTVYLQMNSLKPEDTAVYYCAADAPAGGDSDNDYWGQGTQVTVSS”, the “polyreactivity (PSR sort gate)” value is recorded as “high polyreactivity”.

Regarding “QVQLVESGGGLVQAGGSLRLSCAASGLIFGFYAMGWYRQAPGKERELVAAINSGGITYYADSVKGRFTISRDNAKNTVYFQMNSLKPEDTAVYYCNKDSHISTAYDYWGQGTQVTVSS”, the “polyreactivity (PSR sort gate)” value is “low polyreactivity”. Then “QVQLVESGGGLVQAGGSLRLSCAASGLIFGGNAMGWYRQAPGKERELVAAISRTGGRTYYADSVKGRFTISRDNAKNTVYLQMNSLKPDDTAVYFCAAAAQRPEGYYWGQGTQVTVSS”, with “high polyreactivity”; and “QVQLVESGGGLVQAGGSLRLSCAASGLIFGGNAMGWYRQAPGKERELVAAITYRTGSTYYADSVKGRFTISRDNAKITVYLQMNSLKPEDTAVYDCAAAVSLGYPVAFYYWGQGTQVTVSS”, with “low polyreactivity”. Turning to “QVQLVESGGGLVQAGGSLRLSCAASGLIFGGYTMGWYRQAPGKERELVAAIDSGGSTKYADSVKGRFTISRDNAKNTVYLQMNSLKPEDTAVYYCAARDYYAWRYRYHHEVSEFDYWGQGTHVTVSS”, the “polyreactivity (PSR sort gate)” value is reported as “low polyreactivity”. With “QVQLVESGGGLVQAGGSLRLSCAASGLIFGNNAMGWYRQAPGKERELVAAISWSTGGSTYYADSVKGRFTISRDNAKNTVYLQMNSLKPEDTAVYYCAAQYSYGEYWGYDYWGQGTQVTVSS”, the “polyreactivity (PSR sort gate)” value is “low polyreactivity”. Then “QVQLVESGGGLVQAGGSLRLSCAASGLIFGRYAMGGYRQAPGKEREFVAAITWRVGTTYYADSVKGRFTISRDNAKITVYLQMNSLKPEDTAVYYCAARSRTGRYDYWGQGTQVTVSS”, with “high polyreactivity”. As for “QVQLVESGGGLVQAGGSLRLSCAASGLIFGSYAMGWYRQAPGKERELVAAINKSGGSTYYADSVKGRFTISRDNAKNTVYLQMNSLKPEDTAVYYCAKGRSKYYQPGQRDYWGQGTQVTVSS”, the “polyreactivity (PSR sort gate)” value is “high polyreactivity”.

For “QVQLVESGGGLVQAGGSLRLSCAASGLIFGTYAMGWYRQAPGKERELVAVISSSGGSTYYADSVKGRFTISRDNAKNTVYLQMNSLKPEDTAVYYCNARAFRQGHFEYDYWGQGTQVTVSS”, the “polyreactivity (PSR sort gate)” value was “low polyreactivity”. Consider “QVQLVESGGGLVQAGGSLRLSCAASGLIFGVNAMGLYRQAPGTESELVAAITSRGGSTYYADSVKGRFTISRDNAKNTVYLQMNSLKPEDTAVDYCAAKYAYYEPYSWRPQRTYNYWGQGTQVTVSS”, for which the “polyreactivity (PSR sort gate)” value is recorded as “high polyreactivity”. Consider “QVQLVESGGGLVQAGGSLRLSCAASGLIFGWNAMGWYRQAPGKERELVAAITWNGGSTYYADSVKGRFTISRDNAKITVSLQMNSLKPEDTAVYYCAARVGWNIRGYDYWGQGTQVTVSS”, for which the “polyreactivity (PSR sort gate)” value is on record as “low polyreactivity”. Then “QVQLVESGGGLVQAGGSLRLSCAASGLIFGYYAMGCYRQAPGKERELVAAISSSGSTYYADSVKGRFTISCDNEKNTVYLQMNSLKPEDTAVYYCNVDISSYGGDYWGQGTQVTVSS”, with “low polyreactivity”; and “QVQLVESGGGLVQAGGSLRLSCAASGLIFGYYAMGWYRQAPGKEREFVAAIDGSDGTTYYADSVKGRFTISRDNAKNTVYLQMNSLKPEDTAVYFCNADSSSYSSDLGYDYWGQGTQVTVSS”, with “low polyreactivity”.

Regarding “QVQLVESGGGLVQAGGSLRLSCAASGLIFGYYAMGWYRQAPGKESELVDAFSFSGGSTYYADSVKGRFTISRDNAKNTVYLQMNSLKPEDTAVYYCAADLDGSSEYEYWGQCTQVTVSS”, the “polyreactivity (PSR sort gate)” value is reported as “low polyreactivity”.

For “QVQLVESGGGLVQAGGSLRLSCAASGLIFGYYTMGWYRQAPGKEREFVAAISRGGGSTYYADSVNGRFTISRDNAKNTVYLHMNSLKPEDTAVYYCAAVVYGQVQPAYDYWGQGTQVTVLS”, the “polyreactivity (PSR sort gate)” value is “high polyreactivity”. For “QVQLVESGGGLVQAGGSLRLSCAASGLIFHGYAMGWYRQAPGKERELVAVITKNGGRTYYADSVKGRFTISRDTAKNTVYLQMNSLKPEDTAVYYCATGKNYWRGYEYWGQGTQVTVSS”, the “polyreactivity (PSR sort gate)” value is “high polyreactivity”. The same measure for “QVQLVESGGGLVQAGGSLRLSCAASGLIFHKNAMGWYRQAPGKERELVATITSGGNTNYADSVKGRFTISRDNAKNTVYLQMNSLKPEDTAVYYCAKDTHLLNEHSGTSREYDYWGQGTQVTVSS”: “low polyreactivity”; for “QVQLVESGGGLVQAGGSLRLSCAASGLIFHQYAMGWYRQAPGKERELVAAITRSGTRTYYADSVKGRFTISRDNAKNTVYLQMNSLKPEDTAVYYCAAGDTQGVSMDYWGQGTQVNVSS”: “high polyreactivity”. Regarding “QVQLVESGGGLVQAGGSLRLSCAASGLIFIAYAMGWYRQAPGKDRELVAAISSGGSTYADSVKRRFTISRDNAKNTVYLQMNSLKPEETAVYYCNADSWSGTTYFNFNYWGQGTQVTVSS”, the “polyreactivity (PSR sort gate)” value is “low polyreactivity”.
